Residue numbers refer to the chain shown, from its start. Names and notes keep the numbering of the source.
B1: anti-ADDL antibody 19.3 (antibody, V domains shown)
VH: EVQLVESGGGLVQPGGSLRLSCAASGFTFSSFGMHWVRQAPGKGLEWVAYISRGSSTIYYADTVKGRFTISRDNAKNSLYLQMNSLRAEDTAVYYCARGITTALDYWGQGTLVTVSS
VL: DVVMTQSPLSLPVTPGEPASISCRSSQSIVHSNGNTYLEWYLQKPGQSPQLLIYKASNRFSGVPDRFSGSGSGTDFTLKISRVEAEDVGVYYCFQGSRLGPSFGQGTKLEIKR
B2: anti-ADDL antibody 13.1 (antibody, V domains shown)
VH: B1 VH
VL: B1 VL with R98K, L99A, G100H
B3: 19.3 N33S (antibody, V domains shown)
VH: B1 VH
VL: DVVMTQSPLSLPVTPGEPASISCRSSQSIVHSSGNTYLEWYLQKPGQSPQLLIYKASNRFSGVPDRFSGSGSGTDFTLKISRVEAEDVGVYYCFQGSRLGPSFGQGTKLEIL
B4: anti-ADDL antibody 14.2 (antibody, V domains shown)
VH: B1 VH
VL: B1 VL with L99V, G100P, S102G
B5: anti-ADDL antibody 17.1 (antibody, V domains shown)
VH: B1 VH
VL: B1 VL with L99V, G100P, P101A
B6: 19.3 N33T (antibody, V domains shown)
VH: B1 VH
VL: B3 VL with S33T
B7: anti-ADDL antibody 11.4 (antibody, V domains shown)
VH: B1 VH
VL: B1 VL with L99V, G100P, P101V, S102R

Assays:
[1] = target: T1, amyloid β-derived diffusible ligands (ADDLs), oligomers of Aβ1-42; assay: ELISA, IgG2 antibodies
T1 construct: number of copies not defined; also called Aβ oligomers; Aβ oligomer

[2] = target: T1, amyloid β-derived diffusible ligands …; assay: sandwich ELISA, 19.3 capture and 82E1 detection, luminescence (ENVISION)
[3] = target: T2, Aβ1-40 monomer; assay: ELISA on coated antigen, chemiluminescence; antibody stored 1 month at 25°
T2 construct: also called Aβ40 monomer; monomer Aβ

[4] = target: T1, amyloid β-derived diffusible ligands …; assay: three-pronged Aβ ELISA (M90/1 polyclonal capture); ratio of binding to ADDLs over fibrillar Aβ
[5] = target: T1, amyloid β-derived diffusible ligands …; assay: BIACORE (SPR); affinity for Aβ1-40 over affinity for ADDLs
[6] = target: T1, amyloid β-derived diffusible ligands …; assay: ERENNA sandwich immunoassay, 19.3 capture, labelled 82E1 detection
[7] = target: T1, amyloid β-derived diffusible ligands …; assay: competitive ELISA, ratio of the two competition EC50 values
[8] = target: T1, amyloid β-derived diffusible ligands …; assay: competitive ELISA
[9] = target: T1, amyloid β-derived diffusible ligands …; assay: one-sided ELISA, plate coated with 50 pmol/well Aβ oligomers, chemiluminescence
[10] = target: T2, Aβ1-40 monomer; assay: ELISA on coated antigen, chemiluminescence; antibody at 0 timepoint
[11] = target: T1, amyloid β-derived diffusible ligands …; assay: KINEXA; constant for Aβ1-40 over constant for ADDLs
[12] = target: T2, Aβ1-40 monomer; assay: ELISA on coated antigen, chemiluminescence; antibody stored 1 month at 4°
[13] = target: T1, amyloid β-derived diffusible ligands …; assay: one-sided ELISA on coated Aβ oligomers or Aβ1-40
[14] = target: T1, amyloid β-derived diffusible ligands …; assay: … bead-based immunoassay; signal at 0.2 pM ADDLs greater than at 1000 pM Aβ1-40
[15] = target: T2, Aβ1-40 monomer; assay: one-sided ELISA, plate coated with 100 pmol/well Aβ1-40, chemiluminescence
[16] = target: T2, Aβ1-40 monomer; assay: KINEXA, equilibrium constant in solution
[17] = target: T1, amyloid β-derived diffusible ligands …; assay: KINEXA, equilibrium constant in solution
[18] = target: T1, amyloid β-derived diffusible ligands …; assay: three-pronged Aβ ELISA (M90/1 polyclonal capture); ratio of binding to ADDLs over monomeric Aβ
[19] = target: T2, Aβ1-40 monomer; assay: ELISA on coated antigen, chemiluminescence; antibody stored 1 month at 40°
[20] = target: T2, Aβ1-40 monomer; assay: BIACORE (SPR)
[21] = target: T1, amyloid β-derived diffusible ligands …; assay: BIACORE (SPR)

Row | Binder | ADDL:Fibrillar [4] [ratio] | EC50 [10] [nM] | EC50 [12] [nM] | ADDL:Monomer [18] [ratio] | EC50 [19] [nM] | other results
1 | B1 | 2 | 10.1 | 16.3 | 2.5 | 88.8 | EC50 [1]: 0.8 nM; fold selectivity for Aβ oligomer signal as compared to Aβ40 monomers [2]: ~1000 fold; EC50 [3]: 22.1 nM; Ratio (Aβ monomer/ADDL) [5]: ~31 ratio; fold selectivity of the assay for Aβ oligomers over Aβ 40 monomer [6]: 5000 fold; affinity for Aβ1-42 oligomers compared to Aβ1-40 monomers [7]: ~630 ratio; fold higher concentration of Aβ1-40 needed to displace 50% of 19.3 from Aβ oligomers than of Aβ oligomers to displace 19.3 from Aβ1-40 [8]: ~600 fold; EC50 [9]: ~1.6 nM; Ratio (Aβ monomer/ADDL) [11]: ~6.2 ratio; fold greater potency for Aβ oligomers as compared to Aβ40 monomer [13]: ~3.7 fold; ADDL versus monomeric Aβ selectivity [14]: ~5000 fold; EC50 [15]: ~4.3 nM; Kd [16]: 16.7 nM; Kd [17]: 2.7 nM; Kd [20]: 150 nM; Kd [21]: 4.8 nM
2 | B2 | 2 | – | – | 2.4 | – | –
3 | B3 | – | 55.1 | 59.1 | – | 29.9 | EC50 [3]: 24.3 nM
4 | B4 | – | – | – | 4.2 | – | –
5 | B5 | 2.1 | – | – | 3.2 | – | –
6 | B6 | – | 332 | 307 | – | 96.3 | –
7 | B7 | 2.4 | – | – | 2.4 | – | –

Reference: patent US20130130288A1 (published 2013)
